According to article PMC8886817:

Columns and labels:
[1] = molecular target: Rabbit skeletal muscle actin (RMA), as actin filaments (F-actin) (rabbit) (UniProt P68135); test: open-flow TIRF microscopy of single filament growth
[2] = molecular target: Rabbit skeletal muscle actin (RMA), as actin filaments (F-actin) (rabbit) (UniProt P68135); test: single-molecule microfluidics-assisted TIRF
[3] = molecular target: GST-549-SNAP-N-IQGAP1 (GST-SNAP-N-IQGAP1-6His, 1–522) (UniProt P46940); test: single-molecule step photobleaching

average pause time [1] [s]	average dwell time on filament sides [2] [min]	koff [2] [s⁻¹]	stoichiometry N [3]	Substance
14.7	–	–	–	GST-C-IQGAP1 (675–1657) (from UniProt P46940 675-1657) (domain or fragment)
–	6.8	0.0025	2	GST-549-SNAP-N-IQGAP1 (GST-SNAP-N-IQGAP1-6His, 1–522) (from UniProt P46940 1-522) (domain or fragment)
